Results published in patent US20240424125A1 (Zymeworks, published 2024).

Assays:
[1] = target: T1, recombinant His-tagged human FRα (ACROBiosystems) (human, UniProt P15328 25-233); assay: SPR (Biacore T200), high antigen density; end of the range tied to v30384 by Table 8.3
T1 construct: also called hFRα; hFRα antigen; not shown: His tag
Procedure: (§1) Screening of the variants for binding to hFRα antigen was conducted in two steps: capture of hFRα onto surface, followed by injection of three to five concentrations of variant. The hFRα surface was prepared on a CM5 Series S sensor chip by standard amine coupling methods as described by the manufacturer (GE Healthcare Life Science, Mississauga, ON, Canada). The immobilization of the hFRα was performed using Biacore™ T200 immobilization wizard with an amine coupling method aiming for resonance units (RUs) ranging from 5 to 200 RUs. Using multi-cycle kinetics, three to five concentrations of a two-fold dilution series of samples starting at 300 nM with a blank buffer control were injected at 50 uL/min for 180s with a 600s dissociation phase, resulting in a set of sensorgrams with a buffer blank reference. The hFRα surface was regenerated to prepare for the next injection cycle by one pulse of 10 mM glycine/HCl pH 1.5 for 30s at 30 uL/min. Blank-subtracted sensorgrams were analyzed using Biacore™ T200 Evaluation Software v3.0. The blank-subtracted sensorgrams were then fit to the 1:1 Langmuir binding model.

human FRα on cells [2] = target: T2, human FRα on cells (human, UniProt P15328 25-234); assay: apparent Kd, flow cytometry on HEC-1-A cells (endogenous FRα), 24 h at 4°C
T2 construct: Transiently expressed on HEK293-6e, CHO-S or HEK293 microarray cells, or endogenous on JEG-3, HEC-1-A, IGROV-1, OVCAR-3, H2110, KB-HeLa and T-47D cells; also called human folate receptor alpha; FOLR1
T2 sequence (P15328 25-234 limits assumed): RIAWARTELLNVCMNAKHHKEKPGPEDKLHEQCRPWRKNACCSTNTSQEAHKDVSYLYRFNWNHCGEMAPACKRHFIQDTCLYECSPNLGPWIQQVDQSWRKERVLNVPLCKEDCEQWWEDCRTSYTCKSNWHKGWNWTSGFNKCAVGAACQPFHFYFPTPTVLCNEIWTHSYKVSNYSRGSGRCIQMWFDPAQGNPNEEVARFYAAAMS
Procedure: (§2) Briefly, cells were seeded at 50,000 cells/well in V-bottom 96-well plates and treated with antibody for 24 hours at 4° C. to prevent internalization. […] Following incubation and washing, fluorescence was detected by flow cytometry on a BD LSRFortessa™ Cell Analyzer (BD Biosciences, Franklin Lake, NJ) with 1,000 minimum events collected per well. AF647/APC-A GeoMean (fluorescence signal geometric mean, proportional to anti-Human AF647 binding) in live cell population was plotted using GraphPad Prism Version 9 (GraphPad Software, San Diego, CA).

human FRα on cells [3] = target: T2, human FRα on cells; assay: apparent Kd, flow cytometry on JEG-3 cells (endogenous FRα), as in Example 16
Procedure: as §2

[4] = target: T1, recombinant His-tagged human FRα …; assay: BLI (Octet RED96): antibody loaded on anti-human IgG Fc capture biosensors, His-tagged hFRα in solution. Six traces with fit lines plateau between about 0.06 and 0.36 nm during 0-400 s association and return to baseline by about 520 s. The legend prints the same globally fitted KD for all six traces (single run; the text prints only the mean of n=2).
Procedure: (§3) The assay buffer used was KB buffer (kinetics buffer, composed of PBS pH 7.4, 0.1% BSA, 0.02% Tween 20, 0.05% sodium azide) supplemented with 0.06% Tween 20 and in some instances also with 1% BSA. The experiment was conducted at 30° C. with a shake speed of 1000 rpm.
(§4) Data analysis was performed using Data Analysis Software 9.0 (ForteBio, Fremont CA). The reference-subtracted binding curves were globally fitted to the 1:1 interaction model to generate the binding kinetic parameters kₒₙ, koff, and the dissociation constant KD.

[5] = target: T1, recombinant His-tagged human FRα …; assay: BLI (Octet RED96): antibody on anti-human IgG Fc capture biosensor, His-tagged hFRα as analyte, 1:1 global fit, mean of n=2
Procedure: as §3, §4

human FRα on cells [6] = target: T2, human FRα on cells; assay: apparent Kd, flow cytometry on IGROV-1 cells (endogenous FRα), as in Example 16
Procedure: as §2

[7] = target: T1, recombinant His-tagged human FRα …; assay: SPR (Biacore T200): hFRα amine-coupled to CM5 chip at medium antigen density, bivalent FSA injected, 1:1 Langmuir fit, mean of n=2
Procedure: (§5) CM5 Series S sensor chip, Biacore™ amine coupling kit (NHS, EDC and 1 M ethanolamine), and 10 mM sodium acetate buffers were purchased from GE Healthcare Life Science (Mississauga, ON, Canada). PBS running buffer with 0.05% Tween20 (PBST) was purchased from Teknova Inc. (Hollister, CA). Recombinant human FRα was purchased from ACRObiosystems (Newark, DE).
as §1

[8] = target: T1, recombinant His-tagged human FRα …; assay: BLI (Octet RED96) as in Example 8: antibody captured, His-tagged hFRα as analyte, mean of n=2
Procedure: as §3, §4

[9] = target: T1, recombinant His-tagged human FRα …; assay: SPR (Biacore T200): hFRα amine-coupled to CM5 chip at high antigen density, bivalent FSA injected, 1:1 Langmuir fit, mean of n=2
Procedure: as §5, §1

[10] = target: T1, recombinant His-tagged human FRα …; assay: SPR (Biacore T200): hFRα amine-coupled to CM5 chip at medium-low antigen density, bivalent FSA injected, 1:1 Langmuir fit, mean of n=2
Procedure: as §5, §1

human FRα on cells [11] = target: T2, human FRα on cells; assay: cell-based or functional assay
human FRα on cells [12] = target: T2, human FRα on cells; assay: apparent Kd, flow cytometry on JEG-3 cells (endogenous FRα), 24 h at 4°C
Procedure: as §2

[13] = target: T1, recombinant His-tagged human FRα …; assay: SPR (Biacore T200), high antigen density; end of the range tied to v30399 by Table 8.3
Procedure: as §1

T1 sequence (P15328 25-233 limits assumed): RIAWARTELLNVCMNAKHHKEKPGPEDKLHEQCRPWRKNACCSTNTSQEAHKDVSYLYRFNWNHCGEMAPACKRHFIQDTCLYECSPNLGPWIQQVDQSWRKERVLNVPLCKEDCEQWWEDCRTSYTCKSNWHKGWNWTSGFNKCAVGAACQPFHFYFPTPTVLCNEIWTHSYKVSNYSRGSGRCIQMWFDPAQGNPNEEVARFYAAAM

Row | Binder | fold lower KD in FSA compared to one-armed antibody (OAA) format [1] [fold] | Kd (human FRα on cells [2]) [nM] | Kd (human FRα on cells [3]) [nM] | Kd [4] [nM] | Kd [5] [nM] | Kd (human FRα on cells [6]) [nM] | Kd [7] [nM] | Kd [8] [nM] | Kd [9] [nM] | Kd [10] [nM] | fold increase in internalized fluorescence compared to farletuzumab; IGROV-1 cells, 6-hour incubation, 5 nM (human FRα on cells [11]) [fold] | fold increase in internalized fluorescence compared to farletuzumab; IGROV-1 cells, 6-hour incubation, 25 nM (human FRα on cells [11]) [fold] | fold increase in internalized fluorescence compared to farletuzumab; IGROV-1 cells, 24-hour incubation, 5 nM (human FRα on cells [11]) [fold] | fold increase in internalized fluorescence compared to farletuzumab; IGROV-1 cells, 24-hour incubation, 25 nM (human FRα on cells [11]) [fold] | fold increase in internalized fluorescence compared to mirvetuximab; IGROV-1 cells, 6-hour incubation, 5 nM (human FRα on cells [11]) [fold] | fold increase in internalized fluorescence compared to mirvetuximab; IGROV-1 cells, 6-hour incubation, 25 nM (human FRα on cells [11]) [fold] | fold increase in internalized fluorescence compared to mirvetuximab; IGROV-1 cells, 24-hour incubation, 5 nM (human FRα on cells [11]) [fold] | fold increase in internalized fluorescence compared to mirvetuximab; IGROV-1 cells, 24-hour incubation, 25 nM (human FRα on cells [11]) [fold] | Kd (human FRα on cells [12]) [nM] | fold lower KD in FSA compared to one-armed antibody (OAA) format [13] [fold]
1 | v30384 (antibody, human IgG1, kappa, Humanized full-size IgG1/kappa antibody with heterodimeric Fc (HetFc); also called humanized variant v30384; parental humanized) heavy 1: EVQLLESGGGLVQPGGSLRLSCAVSGFSLSSYGVSWVRQAPGKGLEWIGAVNSGGSAYYADSVKGRSTISRDNSKNTVYLQMNSLRAEDTAVYYCARSGSGYPMDYLAIWGQGTLVTVSSASTKGPSVFPLAPSSKSTSGGTAALGCLVKDYFPEPVTVSWNSGALTSGVHTFPAVLQSSGLYSLSSVVTVPSSSLGTQTYICNVNHKPSNTKVDKKVEPKSCDKTHTCPPCPAPELLGGPSVFLFPPKPKDTLMISRTPEVTCVVVDVSHEDPEVKFNWYVDGVEVHNAKTKPREEQYNSTYRVVSVLTVLHQDWLNGKEYKCKVSNKALPAPIEKTISKAKGQPREPQVYVYPPSRDELTKNQVSLTCLVKGFYPSDIAVEWESNGQPENNYKTTPPVLDSDGSFALVSKLTVDKSRWQQGNVFSCSVMHEALHNHYTQKSLSLSPG heavy 2: not shown light: DYQMTQSPSSVSASVGDRVTITCRASQSIGDWLAWYQQKPGKAPKLLIYEASTLASGVPSRFSGSGSGTDFTLTISSVQPEDAATYYCQQGYGRSNVDNIFGGGTKVEVKRTVAAPSVFIFPPSDEQLKSGTASVVCLLNNFYPREAKVQWKVDNALQSGNSQESVTEQDSKDSTYSLSSTLTLSKADYEKHKVYACEVTHQGLSSPVTKSFNRGEC | 181 | 0.07 | 0.5 | 109 | 110 | 1.38 | 2.58 | 127 | 0.79 | 3.76 | 19.1 | 6.1 | 4.7 | 3.9 | 2.6 | 3.3 | 1.9 | 2.1 | 0.31 | 
2 | v30399 (antibody, human IgG1, kappa, Humanized IgG1/kappa, HetFc; also called 4bH4L) heavy 1: EVQVLESGGGLVQPGGSLRLSCAVSGFSLSSYGVSWVRQAPGKGLEWIGAVNSGGSAYYADWAKGRSTISRDNSKNTVYLQMNSLRAEDTAVYYCARSGSGYPMDYLAIWGQGTLVTVSSASTKGPSVFPLAPSSKSTSGGTAALGCLVKDYFPEPVTVSWNSGALTSGVHTFPAVLQSSGLYSLSSVVTVPSSSLGTQTYICNVNHKPSNTKVDKKVEPKSCDKTHTCPPCPAPELLGGPSVFLFPPKPKDTLMISRTPEVTCVVVDVSHEDPEVKFNWYVDGVEVHNAKTKPREEQYNSTYRVVSVLTVLHQDWLNGKEYKCKVSNKALPAPIEKTISKAKGQPREPQVYVYPPSRDELTKNQVSLTCLVKGFYPSDIAVEWESNGQPENNYKTTPPVLDSDGSFALVSKLTVDKSRWQQGNVFSCSVMHEALHNHYTQKSLSLSPG heavy 2: not shown light: DYQMTQSPSSVSASVGDRVTITCRASQSIGDWLAWYQQKPGKAPKLLIYEASTLASGVPSRFSGSGSGTDFTLTISSVQPEDAATYYCQQGYGRSNVDNIFGGGTKVEVKRTVAAPSVFIFPPSDEQLKSGTASVVCLLNNFYPREAKVQWKVDNALQSGNSQESVTEQDSKDSTYSLSSTLTLSKADYEKHKVYACEVTHQGLSSPVTKSFNRGEC |  |  |  |  | 69 |  | 2.67 |  | 0.709 | 3.71 |  |  |  |  |  |  |  |  |  | 116
